In US20240132593A1 (KINETA, published 2024):
“And” between values parts separate entries of the source, which are not always exact repeats. Equal entries are not always repeated.

Key:
[1] = target: T1, His-tagged recombinant mouse VISTA-ECD (Met 1 to Ala 194) (mouse, UniProt Q9D659 33-194); assay: ELISA endpoint, His-VISTA on plate, mAb at 23 µg/mL
T1 construct: Bought (Sino Biological); not shown: His tag
T1 sequence: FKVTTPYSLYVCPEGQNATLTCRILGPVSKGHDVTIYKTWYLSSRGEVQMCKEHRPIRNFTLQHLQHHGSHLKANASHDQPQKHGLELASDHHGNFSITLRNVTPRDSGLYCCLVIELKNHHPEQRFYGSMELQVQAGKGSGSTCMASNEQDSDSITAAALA

[2] = target: T2, His-tagged recombinant human VISTA-ECD (Met 1 to Ala 194) (human, UniProt Q9H7M9 33-194); assay: ELISA, His-tagged human VISTA ECD on plate, mAb titrated
T2 construct: also called hu.VISTA; VISTA-His; not shown: His tag

[3] = target: T3, His-tagged recombinant cynomolgus monkey VISTA-ECD (Met 1 to Ala 194) (cynomolgus monkey, UniProt Q9H7M9 33-194 (human entry)); assay: BLI Octet, mAb on AHC sensor, cyno VISTA-ECD-His 300 nM
T3 construct: also called cyno VISTA; Cyno VISTA
T3 chain: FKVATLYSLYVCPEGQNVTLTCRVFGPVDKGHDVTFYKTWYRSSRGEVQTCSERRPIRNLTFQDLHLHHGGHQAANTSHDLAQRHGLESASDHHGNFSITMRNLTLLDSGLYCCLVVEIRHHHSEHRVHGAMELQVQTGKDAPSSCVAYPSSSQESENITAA
Experimental: (§1) Octet scouting: Antibody affinities were measured using biolayer interferometry (BLI) on the Octet Red 96 (ForteBio) system. Anti-human IgG Fc Capture (AHC) dip and read sensors (ForteBio) were used to capture each anti-VISTA antibody formatted as either an IgG1 or IgG4 and diluted to 20 μg/mL in PBS pH 7.4. AHC sensors were dipped into antibody solution for 180 s to capture each IgG on the sensor. An initial baseline was established by soaking each sensor in PBS pH 7.4 for an additional 120 s. […] Human, cynomolgus monkey, and mouse VISTA-ECD were evaluated. Studies were performed by association with VISTA-ECD for 240 s and dissociation in PBS pH 7.4 for 360 s. Data analysis was performed using Octet Data Analysis software version 9.0.0.14. In general, baseline alignment without subtraction was used for raw data processing. A Savitzky-Golay digital filter was used to remove high-frequency noise, and processed data were globally fit to a 1:1 binding model. Where binding was present, the affinity constant (KD) was calculated for each antibody-antigen pair.

[4] = target: T2, His-tagged recombinant human VISTA-ECD …; assay: ELISA endpoint, His-VISTA on plate, mAb at 2 µg/mL
Experimental: (§2) Nickel-coated 96-well ELISA plates (Thermo Scientific) or Maxisorb 96-well polystyrene ELISA plates were coated overnight at 4° C. with 50 μL of a 0.5-1 μg/mL solution of His-tagged VISTA protein (SinoBiological, Met1-Ala194 produced in HE293 cells) in 0.1M NaHCO₃ pH 9.6. All subsequent incubations were performed at room temperature. Wells were washed 3 times with PBST (0.05% Tween 20) and blocked for 2 h with 200 μL 5% BSA in PBST. […] Each antibody dilution was incubated at 50-100 μL/well in the ELISA plate for 1 h, after which plates were washed 3 times with PBST and incubated with a 1:20,000 dilution of Biotin SP AffiniPure Donkey Anti-Human IgG (H+L) polyclonal antibody (Jackson ImmunoResearch, 50-100 μL/well) for 1 h. Wells were washed 3 times with PBST, and the plates were incubated with 50-100 μL of a 1:200 dilution of Streptavidin-HRP (R&D Systems) for 30 min. Wells were washed 3 times with PBST and developed with 100 μL 1-Step Ultra Fast TMB Substrate (Thermo Scientific) for 2 minutes. The reaction was stopped with 100 μL 2N H₂SO₄, and plate well absorbance was measured at 450 nm (Biotek ELx808).

[5] = target: T3, His-tagged recombinant cynomolgus …; assay: ELISA endpoint, His-VISTA on plate, mAb at 2 µg/mL
Experimental: as §2

[6] = target: T4, hVISTA ECD-Fc R54A, F62A, Q63A (human); assay: ELISA on immobilized VISTA-Fc (5 µg/mL), antibody at 10 µg/mL
T4 construct: also called human VISTA-Fc 54A62A63A; triple VISTA-Fc mutant
Experimental: (§3) ELISA was used to measure antibody binding to wild-type and mutant VISTA essentially as described above. VISTA-Fc (5 μg/mL) was immobilized on Maxisorb 96-well ELISA plates and reacted with each antibody diluted to 10 μg/mL in a standard ELISA format. Binding data were reported as absorbance at 450 nm.

[7] = target: T5, his-tagged human VISTA-ECD (human, UniProt Q9H7M9 33-194); assay: BLI sandwich binning; VISTA-ECD-His held by capture Ab 173.1 (competitor)
T5 construct: also called hu.VISTA; VISTA protein (Human recombinant, produced in HEK 293 cells, SinoBiologics); not shown: His tag

[8] = target: T5, his-tagged human VISTA-ECD; assay: BLI sandwich binning; VISTA-ECD-His held by capture Ab VSTB-174 (competitor)
Experimental: (§4) Octet binning studies: Epitope mapping was performed by BLI on the Octet system. AHC sensors were used to capture anti-VISTA antibody (20 μg/mL) over 100 s. Unbound sites on the sensor were blocked with a saturating amount (50 μg/mL) of pooled purified human IgG for 180 s. Antigen (his-tagged human VISTA-ECD at 100 nM) was bound to immobilized antibody for 180 s, after which the sensor was interrogated for the ability of a paired antibody to bind the antigen in the sandwiched format. Multiple pairing arrangements were interrogated such that each antibody was used as the capture antibody in the format at least one time. Data are represented as response (nm) for the secondary antibody.

[9] = target: T5, his-tagged human VISTA-ECD; assay: BLI sandwich binning; VISTA-ECD-His held by capture Ab 269.1 (competitor)
Experimental: as §4

RFQ-VISTA-ECD-Fc = target: T6, RFQ-VISTA-ECD-Fc (human); assay: ELISA, 10 ug/mL antibody on plate-bound mutant VISTA-Fc
T6 construct: also called hVISTA ECD-Fc R54A, F62A, Q63A; human VISTA-Fc 54A62A63A
Experimental: as §3

[10] = target: T5, his-tagged human VISTA-ECD; assay: BLI sandwich binning; VISTA-ECD-His held by capture Ab 457.1 (competitor)
Experimental: as §4

[11] = target: T5, his-tagged human VISTA-ECD; assay: BLI sandwich binning; VISTA-ECD-His held by capture Ab 321.1 (competitor)
Experimental: as §4

[12] = target: T5, his-tagged human VISTA-ECD; assay: BLI sandwich binning; VISTA-ECD-His held by capture Ab 245.1 (competitor)
Experimental: as §4

[13] = target: T5, his-tagged human VISTA-ECD; assay: BLI sandwich binning; VISTA-ECD-His held by capture Ab 465.1 (competitor)
Experimental: as §4

[14] = target: T2, His-tagged recombinant human VISTA-ECD …; assay: BLI Octet, reversed format (avidity): hu VISTA-ECD-His on HIS1K sensor, mAb 133.3 nM
[15] = target: T7, His-tagged recombinant mouse VISTA-ECD (Met 1 to Ala 194) (Sino Biological) (mouse, UniProt Q9D659 33-194); assay: BLI (Octet Red 96), antibody on AHC sensor
T7 construct: not shown: His tag
T7 sequence: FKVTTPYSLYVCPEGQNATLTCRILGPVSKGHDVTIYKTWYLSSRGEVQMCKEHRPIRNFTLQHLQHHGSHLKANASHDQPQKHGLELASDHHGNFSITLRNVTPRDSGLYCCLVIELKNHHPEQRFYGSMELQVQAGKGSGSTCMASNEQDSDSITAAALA

[16] = target: T2, His-tagged recombinant human VISTA-ECD …; assay: BLI Octet, mAb on AHC sensor, hu VISTA-ECD-His 50 nM
Experimental: as §1

B1: Antibody No. 457.1 (antibody, human IgG1, kappa)
heavy: not shown
light: EIVLTQSPATLSLSPGERATLSCGASQSVSSNYLAWYQQKPGLAPRLLIYGASSRATGVPDRFSGSGSGTDFTLTISRLEPEDFAVYYCQQYGYSYTFGQGTKLEIKRTVAAPSVFIFPPSDEQLKSGTASVVCLLNNFYPREAKVQWKVDNALQSGNSQESVTEQDSKDSTYSLSSTLTLSKADYEKHKVYACEVTHQGLSSPVTKSFNRGEC
notes: Human IgG1, kappa
[1]
  endpoint absorbance (450 nm): 0.082
[2]
  EC50: 0.394 µg/mL
[3]
  Response: 0.456
[4]
  endpoint absorbance (450 nm): 2.04
[5]
  endpoint absorbance (450 nm): 2

B2: Antibody No. 457.1 (antibody, human IgG1, kappa)
light: EIVLTQSPATLSLSPGERATLSCGASQSVSSNYLAWYQQKPGLAPRLLIYGASSRATGVPDRFSGSGSGTDFTLTISRLEPEDFAVYYCQQYGYSYTFGQGTKLEIKRTVAAPSVFIFPPSDEQLKSGTASVVCLLNNFYPREAKVQWKVDNALQSGNSQESVTEQDSKDSTYSLSSTLTLSKADYEKHKVYACEVTHQGLSSPVTKSFNRGEC
heavy: not shown
[6]
  binding result: binds

B3: Antibody No. 457.1 (antibody, human IgG1, kappa)
heavy: not shown
light: EIVLTQSPATLSLSPGERATLSCGASQSVSSNYLAWYQQKPGLAPRLLIYGASSRATGVPDRFSGSGSGTDFTLTISRLEPEDFAVYYCQQYGYSYTFGQGTKLEIKRTVAAPSVFIFPPSDEQLKSGTASVVCLLNNFYPREAKVQWKVDNALQSGNSQESVTEQDSKDSTYSLSSTLTLSKADYEKHKVYACEVTHQGLSSPVTKSFNRGEC
notes: human IgG1
[7]
  BLI response of secondary antibody: 0.0675 nm
[8]
  BLI response of secondary antibody: 0.0285 nm
[9]
  BLI response of secondary antibody: 0.0173 nm
RFQ-VISTA-ECD-Fc
  ELISA Abs 450 nm: 1.6 Abs 450 nm
[10]
  BLI response of secondary antibody: 0.0481 nm
[11]
  BLI response of secondary antibody: 0.0481 nm
[12]
  BLI response of secondary antibody: 0.0427 nm
[13]
  BLI response of secondary antibody: 0.044 nm

B4: Antibody No. 269.1 (antibody, human IgG1, kappa)
heavy: not shown
light: EIVLTQSPDFQSVTPKEKVTITCRASQSIGSSLHWYQQKPDQSPKLLIKYASQSISGVPSRFSGSGSGTDFTLTINSLEAEDAAAYYCHQSSSLPQTFGQGTKVEIKRTVAAPSVFIFPPSDEQLKSGTASVVCLLNNFYPREAKVQWKVDNALQSGNSQESVTEQDSKDSTYSLSSTLTLSKADYEKHKVYACEVTHQGLSSPVTKSFNRGEC
notes: Human IgG1, kappa
[1]
  endpoint absorbance (450 nm): 0.079
[2]
  EC50: 0.475 µg/mL
[3]
  Response: 0.434
[14]
  Kd: < 1 pM

B5: Antibody No. 269.1 (antibody, human IgG1, kappa)
heavy: not shown
light: EIVLTQSPDFQSVTPKEKVTITCRASQSIGSSLHWYQQKPDQSPKLLIKYASQSISGVPSRFSGSGSGTDFTLTINSLEAEDAAAYYCHQSSSLPQTFGQGTKVEIKRTVAAPSVFIFPPSDEQLKSGTASVVCLLNNFYPREAKVQWKVDNALQSGNSQESVTEQDSKDSTYSLSSTLTLSKADYEKHKVYACEVTHQGLSSPVTKSFNRGEC
notes: human IgG1
[7]
  BLI response of secondary antibody: 0.0651 nm
[8]
  BLI response of secondary antibody: 0.0261 nm
[9]
  BLI response of secondary antibody: 0.066 nm
RFQ-VISTA-ECD-Fc
  ELISA Abs 450 nm: 1.65 Abs 450 nm
[10]
  BLI response of secondary antibody: 0.0507 nm
[11]
  BLI response of secondary antibody: 0.0542 nm
[12]
  BLI response of secondary antibody: 0.0319 nm
[13]
  BLI response of secondary antibody: 0.0505 nm

B6: Antibody No. 833.1 (antibody, human IgG1, kappa)
heavy: not shown
light: EIVLTQSPDFQSVTPKEKVTITCRASQSIGSSLHWYQQKPDQSPKLLIKYASQSISGVPSRFSGSGSGTDFTLTINSLEAEDAAAYYCHQSSSLPQTFGQGTKVEIKRTVAAPSVFIFPPSDEQLKSGTASVVCLLNNFYPREAKVQWKVDNALQSGNSQESVTEQDSKDSTYSLSSTLTLSKADYEKHKVYACEVTHQGLSSPVTKSFNRGEC
notes: human IgG1; also called Ab No. 833.1
RFQ-VISTA-ECD-Fc
  ELISA Abs 450 nm: 1.56 Abs 450 nm

B7: Antibody No. 833.1 (antibody, human IgG1, kappa)
light: EIVLTQSPDFQSVTPKEKVTITCRASQSIGSSLHWYQQKPDQSPKLLIKYASQSISGVPSRFSGSGSGTDFTLTINSLEAEDAAAYYCHQSSSLPQTFGQGTKVEIKRTVAAPSVFIFPPSDEQLKSGTASVVCLLNNFYPREAKVQWKVDNALQSGNSQESVTEQDSKDSTYSLSSTLTLSKADYEKHKVYACEVTHQGLSSPVTKSFNRGEC
heavy: not shown
notes: also called Ab No. 833.1
[6]
  binding result: binds
[15]
  binding result: no binding (tested: 50 nM-300 nM)

B8: Antibody No. 833.1 (antibody, human IgG1, kappa)
heavy: not shown
light: EIVLTQSPDFQSVTPKEKVTITCRASQSIGSSLHWYQQKPDQSPKLLIKYASQSISGVPSRFSGSGSGTDFTLTINSLEAEDAAAYYCHQSSSLPQTFGQGTKVEIKRTVAAPSVFIFPPSDEQLKSGTASVVCLLNNFYPREAKVQWKVDNALQSGNSQESVTEQDSKDSTYSLSSTLTLSKADYEKHKVYACEVTHQGLSSPVTKSFNRGEC
notes: Human IgG1, kappa; also called Ab No. 833.1
[16]
  Response: 0.334
[2]
  EC50: 0.074 µg/mL and 0.5 nM
[4]
  endpoint absorbance (450 nm): 2.02
[5]
  endpoint absorbance (450 nm): 1.89
